The target in assay [1] is recombinant hemagglutinin (HA) derived from A/Thailand/CU44/2006, wild type (influenza A virus A/Thailand/CU44/2006). Put plainly: SEC-MALS. Background: In gel filtration, larger molecules generally elute earlier.
Assay [2] has the same target. Put plainly: […]; 20 mM Tris-HCl pH 8.0, 100 mM NaCl.

Regarding “recombinant hemagglutinin (HA) derived from A/Thailand/CU44/2006, wild type (natural protein)”, the stoichiometry N (commonly the number of molecules, sites or subunits per partner or assembly) in assay [1] came to 9 HA trimers; in assay [2], 3.

Values taken from PMC7508890.
